Source: patent US6033847

Experiments:
[1] = target: CDK4-cyclin D2 holoenzyme complex (Mus musculus (Mouse)) (UniProt P30285)
[2] = target: CDK6-cyclin D2 holoenzyme complex (Mus musculus (Mouse)) (UniProt P30280)

| pRb kinase activity (fold less efficient) [1] | pRb kinase activity (fold less efficient) [2] | Substance |
| --- | --- | --- |
| > 30 | > 30 | GST-ANK6 (GST fused to the MAD3 subdomain containing only the five ankyrin repeats, amino acids 73-242) (from UniProt P08515) |
| > 30 | > 30 | GST-MAD3 (GST fused to mouse IkB (MAD3)) (from UniProt Q9Z1E3) |
